Article PMC11845725

Legend:
[1] = biological target: TGFBR2 extracellular domain (TGF-β type II receptor) (UniProt P37173)
[2] = biological target: TGFBR2 extracellular domain (TGF-β type II receptor) (UniProt P37173); assay: ITC; TGM6-D3, TGM1-D3 and TGFBR2 variants, simple binding model, 1–2 replicates per variant; syringe and cell proteins in Supplementary Table 6; 25 mM HEPES, 150 mM NaCl, 0.05% NaN3, pH 7.4
[3] = biological target: TGM6 domain 3 (TGM6-D3) (H. polygyrus); assay: ITC; competition: 150 μM TGFBR2 in the syringe into 15 μM TGM6-D3 in the cell with 0.0 or 6.0 μM TGM1-D3; 25 °C; ITC buffer pH 7.4; global fit to a simple competitive binding model; constants are for binding in the absence of competitor
[4] = biological target: TGM1 domain 3 (TGM1-D3) (H. polygyrus); assay: ITC; binder in the syringe, target in the sample cell, concentrations as in the tables; 35 °C; 25 mM HEPES, 150 mM NaCl, 0.05% NaN3, pH 7.4; fit to a simple 1:1 binding model
[5] = biological target: TGM6 domain 3 (TGM6-D3) (H. polygyrus); assay: as above
[6] = biological target: TGM6-D3 Q81K R82S R83G G84T (KSGT) (H. polygyrus); assay: as above
[7] = biological target: TGM1-D3 S242R (H. polygyrus); assay: as above
[8] = biological target: TGM6-D3 R82S (H. polygyrus); assay: as above
[9] = biological target: TGM6-D3 R82A (H. polygyrus); assay: as above
[10] = biological target: TGM1-D3 K254P N255R (PR) (H. polygyrus); assay: as above
[11] = biological target: TGM1-D3 K241Q S242R G243R T244G (QRRG) (H. polygyrus); assay: as above
[12] = biological target: TGM6-D3 R95A (H. polygyrus); assay: ITC; binder in the syringe, target in the sample cell, concentrations as in the tables; 25 °C; 25 mM HEPES, 150 mM NaCl, 0.05% NaN3, pH 7.4; fit to a simple 1:1 binding model
[13] = biological target: TGM6 domain 3 (TGM6-D3) (H. polygyrus); assay: as above
[14] = biological target: TGM6-D3 I78A (H. polygyrus); assay: as above
[15] = biological target: TGM6-D3 P94K R95N (KN) (H. polygyrus); assay: as above
[16] = biological target: H. polygyrus TGF-β Mimic 6 (TGM6) (H. polygyrus); assay: as above
[17] = biological target: TGM6-D3 Y80F (H. polygyrus); assay: as above
[18] = biological target: TGM6-D3 Y80A (H. polygyrus); assay: as above
[19] = biological target: TGM6-D3 R38A (H. polygyrus); assay: as above
[20] = biological target: TGM6-D3 Y93A (H. polygyrus); assay: as above
[21] = biological target: TGM1 domains 4 and 5 (TGM1-D45) (H. polygyrus); assay: ITC; binder in the syringe, target in the sample cell, concentrations as in the tables; 35 °C; 25 mM HEPES, 150 mM NaCl, 0.05% NaN3, pH 7.4; fit to a simple 1:1 binding model
TGFBR2 E142A (human) = assay: as above
TGFBR2 D55A (human) = assay: as above
TGFBR2 I76A (human) = assay: ITC; binder in the syringe, target in the sample cell, concentrations as in the tables; 25 °C; 25 mM HEPES, 150 mM NaCl, 0.05% NaN3, pH 7.4; fit to a simple 1:1 binding model
TGFBR2 D141A (human) = assay: as above
[22] = biological target: TGF-β type II receptor extracellular domain (TGFBR2) (human); assay: as above

## TGM6 (TGF-β mimic 6), full-length (natural protein)
[1]
  IC50 of inhibition of the TGF-β1- or TGM1-stimulated CAGA luciferase reporter in NIH-3T3 fibroblasts by increasing concentrations of TGM6: 0.05 nM
  IC50 of inhibition of the TGF-β1- or TGM1-stimulated reporter in MFB-F11 fibroblasts by increasing concentrations of TGM6: 0.2 nM

## TGM6-D3 R95A (domain or fragment)
[2]
  fold decrease in binding affinity against wild type: 11.6 fold

## TGM6-D3 Y93A (domain or fragment)
[2]
  fold decrease in binding affinity against wild type: 108 fold

## TGF-β type II receptor extracellular domain (TGFBR2)
[3]
  Kd: 189 nM
[4]
  Kd: 1530 nM
  stoichiometry N: 0.72 sites
[5]
  Kd: 437 nM
  stoichiometry N: 1.01 sites
[6]
  Kd: 4490 nM
  stoichiometry N: 0.82 sites
[7]
  Kd: 380 nM
  stoichiometry N: 0.7 sites
[8]
  Kd: 3090 nM
  stoichiometry N: 1.12 sites
[9]
  Kd: 4230 nM
  stoichiometry N: 0.93 sites
[10]
  Kd: 2620 nM
  stoichiometry N: 0.91 sites
[11]
  Kd: 170 nM
  stoichiometry N: 1.1 sites
[12]
  Kd: 3820 nM
  stoichiometry N: 1 sites
[13]
  Kd: 360 nM
  stoichiometry N: 0.87 sites
[14]
  Kd: 5560 nM
  stoichiometry N: 0.71 sites
[15]
  Kd: 270 nM
  stoichiometry N: 0.9 sites
[16]
  Kd: 222 nM
  stoichiometry N: 1.16 sites
[17]
  Kd: 1250 nM
  stoichiometry N: 0.67 sites
[18]
  Kd: 48400 nM
  stoichiometry N: 0.33 sites
[19]
  Kd: 8030 nM
  stoichiometry N: 0.85 sites
[20]
  Kd: 39000 nM
  stoichiometry N: 0.17 sites

## TGM6-D3 R82S (domain or fragment)
[2]
  fold loss of binding affinity against wild type: 8.6 fold

## mouse CD44 (mCD44) (receptor)
[21]
  Kd: 126 nM
  stoichiometry N: 0.82 sites

## TGM6-D3 Y80A (domain or fragment)
[2]
  fold decrease in binding affinity against wild type: 134 fold

## TGM6-D3 I78A (domain or fragment)
[2]
  fold decrease in binding affinity against wild type: 15.4 fold

## TGM6-D3 Y80F (domain or fragment)
[2]
  fold decrease in binding affinity against wild type: 3.5 fold

## TGM6-D3 R38A (domain or fragment)
[2]
  fold decrease in binding affinity against wild type: 22 fold

## TGM1-D3 S242R (domain or fragment)
[2]
  fold gain of binding affinity against wild type: 4 fold

## TGM6 domain 3 (TGM6-D3) (domain or fragment)
TGFBR2 E142A (human)
  Kd: 3170 nM
  stoichiometry N: 0.56 sites
TGFBR2 D55A (human)
  Kd: 2250 nM
  stoichiometry N: 0.52 sites
TGFBR2 I76A (human)
  Kd: 7350 nM
  stoichiometry N: 0.69 sites
TGFBR2 D141A (human)
  Kd: 940 nM
  stoichiometry N: 0.75 sites
[22]
  Kd: 350 nM
  stoichiometry N: 0.68 sites

## TGM6-D3 R82A (domain or fragment)
[2]
  fold decrease in binding affinity against wild type: 11 to 12 fold
